{
  "source": "paper PMC7954794",
  "about": "“Protein context shapes the specificity of SH3 domain-mediated interactions in vivo” (Nature Communications, 2021)",
  "molecules": {"B1": {"name": "YLR436C_1 (protein, UniProt Q06673 1-1274, looked up)", "Protein ECM30": "MGNTDSKSSSILLNHCIALVRPEDADASSPSRTSSPSPSLSVDADPLSLNLSIFKLDSGPDVEALFSDKPNVPLDTVFNDFYLDFISVDVQDFSINSSFKKILHIISSLNPPNFNNLIVFLSLYIILSANSLPASRTGLHSSRLINAIKTLSILIPIYFDRVKSSTQDHYDVFWATQHEIEGLPLQNIPLGERLLLAILKLAFQDNFTTAVTAHPSELWEIGILTNSNKYRSLLNMHHQWHLFANRLLLLRLLAALFSSDLYTSGGKQDINMFLVYWCTQMPKDKSIQFTSSLLNCTMRFILNNNKDFQSLKANFFSSDATASNWQTLYFQFVQSCLHVLNLSMSYKAQDNVITIFLTQLQREYDLKLILSSFIKIFKYPIDLAIEQESNIFNFTNNKHIDASRRRAVSTSSHDNSSSSHASLPSSSSAAYHTKPQTKPQLPEIHPLLIPMTILMTNLIDCNKCFQNYFADKFASRFIIFSIYYLKYYDYSSLSSSSSTTRSNSSTTSNGTSNDTSNERSIVELNENSVSQILLPLLNHLLLILTSKKLVLFKMLQTFNLNYYTNNLPNFYKLSNINGDINNLTFRDFTVIQLSNLILDNIKFNLQPNPIFYELIYNLLPINDEILTSSHKNDDSHDDLILLSAKKKSASPSAATSSHTSSSKLSYNAAMSLLYVLSKSSNKVYLTTYATPVFKTKDIPYMISPGFKMDLLALLLRSITIFFTLYFDDAENLLFAMVRHQSITHQINDSINSISKALDMNPNLNSHIMTLKQMGFNRKVQWKDFYQFEEITDLPQVNLYSSANQQHQNQQQGQNDNRGQNQNEDPGQENESPTPYLLFNPASLENETPGTVKHFSSTNHDKNYQVIAFIDFKSDSNLNLQHQLEYWPHRPQWPTPLTFTHKCKNPKYENFNEVWSGTVYLQILLRVIKQILSKVPEIPRIKSVQYFETLSKLSALRSDILTTIHPRLPLDVRRLTTFQPLSMHTNDKLLMWFHIATWANIFTQTSFKYEETFSHELRQFESLLDISIDECEGNTISKPTTDRLGYIRRSRGQSSVSLERTISAGSGVSTPTMALNRTKSNGSGNLMNYFFQNTAQNHFQHLRSSSSSSSITLEKTTSNSSSIRTRPNSHHVAPETNNNNSTNGNSNNSSNGGFSFFKWKWGGNNSNGGSDDTKASQRDPNVSTSIITDNLNSYMFEEEISPGVVNNIIENNIWVGTDIRLFKIANFRKESFSFLEMTSSFFKKFKFINSDNDNYNNNEFDDNTQLRYTSRGLYR"}, "B2": {"name": "YMR192W_1 (protein, UniProt Q04322 1-720, looked up)", "Probable GTPase-activating …": "MNSNEDIHEERIEVPRTPHQTQPEKDSDRIALRDEISVPEGDEKAYSDEKVEMATTNASSNFGSNESAKDGESIGAFSNPHEALMQSKLREESQSKTILPSDDLSQQLETEESKVEEALKRITSPPLPPRADCIEESASALKSSLPPVLAGNKNDQAPLDRPQLPPRQVVNAETLHLKAPHGNATPSKSPTSAVGNSSSSTPPTLPPRRIEDPLDLAAQKHFLASTFKRNMLFYKSEDNSIKCDLDKNILNLKEDSKKINNNEIPEEVSSFWLKVIGDYQNILINDIETLHFQLSRGIPAAYRLVVWQLVSYAKSKSFDPIYETYLTEMAPFDVQEFENQLKMMDEVPSEYVKRISNVLKAYLLFDPECEFSTDIAYIINMILDVCEEEANAFGLLVRLMKVYGLRLLFLPSASEIDILCYKFDRLVEEFYPEIHNHMVEKGVRSSMFLPGFFTTLFQKKLPTEIQPRIGDMVFLEGIDSIMRILATLLSNSRDHLLKMGFDDMLELLKSGLLDAYIKQNDGTRGDTLLSNECMDKLLQDSMMKVAITPKTMKKYSSEYEEIHRLDNEKEVQYKSITEKNLHLQKHVRKLENDYTSLNREHVTIANELVKNRLNIESVLNENNGYKLQILDLKKKLDSEKKKQVLGVYVPNDLKKDLEETMKKNTQVMDENLKLQDRISELERLIEEIKTANKNGTLFEYSNSKNNPLGAGWSGFKKVFK"}, "B3": {"name": "YIL095W_1 (protein, UniProt P40494 1-810, looked up)", "Actin-regulating kinase PRK1": "MNTPQISLYEPGTILTVGSHHAKIIKYLTSGGFAQVYTAEISPPDPYSNANIACLKRVIVPHKQGLNTLRAEVDAMKLLRNNKHVVSYIDSHAARSVNGIAYEVFVLMEFCERGGLIDFMNTRLQNRLQESEILEIMSQTVQGITAMHALQPPLIHRDIKIENVLISHDGLYKVCDFGSVSGVIRPPRNTQEFNYVQHDILTNTTAQYRSPEMIDLYRGLPIDEKSDIWALGVFLYKICYYTTPFEKSGEAGILHARYQYPSFPQYSDRLKNLIRLMLMEAPSQRPNICQVLEEVSRLQNKPCPIRNFYLLRAMNQNANTQLAGEPSSTTYVPTQKFIPVQSLQSINQPPNMMPVTHVSTTPNLGTFPISINDNNKTEVTAHAGLQVGSHSNLTSPLMKTKSVPLSDEFASLYYKELHPFQKSQTFKSVESFQSPQRKSMPPLSLTPVNNDIFDRVSAINRPNNYVDSETQTIDNMAVPNLKLSPTITSKSLSSTKEIAAPDNINGSKIVRSLSSKLKKVITGESRGNSPIKSRQNTGDSIRSAFGKLRHGFTGNSVNNSRSASFDNNNVNGNGNNTNRRLVSSSTSSFPKFNSDTKRKEESDKNQRLEKRRSMPPSILSDFDQHERNNSRTGSRDYYRSHSPVKKTQASAKTTSKPTLIPDNGNVNINQEKKESIQRRVHNLLKSSDDPVTYKSASGYGKYTDIGTETSNRHSSVRITPITEEKFKKTLKDGVLDIKTKSNGKDKSRPPRPPPKPLHLRTEIQKIRNFSRLQSKKLPIERISSEATETIVDVNVDDLEADFRKRFPSKV"}, "B4": {"name": "YLR166C_1 (protein, UniProt Q06245 1-871, looked up)", "Exocyst complex component …": "MNSLYELDPKWKKLLKTDNFLGGLTVNEFVQELSKDHRNDVLIDANTKNLPTNEKDQDAIREAIWKQLDPKPYIRTFESTLKELKNLNEETLNKRQYFSEQVATQEVIHSENVIKLSKDLHTTLLTFDKLDDRLTNVTQVVSPLGDKLETAIKKKQNYIQSVELIRRYNDFYSMGKSDIVEQLRLSKNWKLNLKSVKLMKNLLILSSKLETSSIPKTINTKLVIEKYSEMMENELLENFNSAYRENNFTKLNEIAIILNNFNGGVNVIQSFINQHDYFIDTKQIDLENEFENVFIKNVKFKEQLIDFENHSVIIETSMQNLINDVETVIKNESKIVKRVFEEKATHVIQLFIQRVFAQKIEPRFEVLLRNSLSISNLAYVRILHGLFTLFGKFTKSLIDYFQLLEIDDSNQILSTTLEQCFADLFSHYLYDRSKYFGIEKRSLEAILVDMTSKFTVNYDKEINKRVLLDKYKEKLSTNVDAFMHSPRGNTHSRQDSTSRSKLSQFNSFLKTHLDKDHLSLNRTNTLSDSFNNSSSSTQYDVANNSSSLVNSSFTASDIDNSPNSPANYSLNDVDSMLKCVVESTARVMELIPNKAHLYILEILKIMFLGIVDSYMEIALEVAYWKICKVDINKTAGVVNLNFLKFISMSTEILDLLSISIKSIFLPLLNNSPEIKAQIIEMTNSQIQKMEILINIILQETITVISTKFSAILCKQKKKDFVPKSQELLDQDTLPAIEIVNILNLIFEQSSKFLKGKNLQTFLTLIGEELYGLLLSHYSHFQVNSIGGVVVTKDIIGYQTAIEDWGVASLIDKFATLRELANLFTVQPELLESLTKEGHLADIGRDIIQSYISNREDFNHDNFINSVKLNFR"}, "B5": {"name": "YJL201W_1 (protein, UniProt P32525 1-599, looked up)", "Protein ECM25": "MIDINVNNIFFRSYSVDPNSGHAIYVFDSTYLPASDEIGDKQVYDLLINALMDRLVMKLPQAPYSLVIFSSGFSQRKISWVYGIKMFAKLPKETKFYLQKIFIVHESFFVRSVYQVISNAMNFNFLDSKDSQHDFPSLVHVLDLTSLSELIDITRLRISLNVYLYDYQIREHINVPEEYYNRLTPLAIRQYRQLVFDKIFKKLQNDALLCELIFQKPGNYKKVNIFLDIIKRNNYIDLSQWDIYSLASVWLNYFIKNKAKPLIPIELIPLPIVDDLKFTSETFRKIIKFNQYQDLFMVIIPFFNRIIAHGESTKHDSRTLSKALTPALCKEKLSMMTNDRLAIGSRYIKNLLDFFPEIAKEISSPPSSVSSSSTIPVLPKPRKSSPTRYSELGCLTLPRSRSPSPQRSVTSPTYTPVALQNTPVLKPKSSSRNVSSPSFNAKPPLPIKAVTRPQLSLTSNSNTDLALASSSTDTLSSPTKTPSADSLPLSNSSTDLTISDNIKEMVKDEPAKDKNSVETDIFVQQFESLTLVQNAKIKKFDKELQEKKKKNETTSKTADKFSQKGYSDIKASNKVSRLAALYEERLQGLQVMNEMKQRW"}, "B6": {"name": "YML016C_2 (protein, UniProt P26570 2-692, looked up)", "Serine/threonine-protein …": "GNSSSKSSKKDSHSNSSSRNPRPQVSRTETSHSVKSAKSNKSSRSRRSLPSSSTTNTNSNVPDPSTPSKPNLEVNHQRHSSHTNRYHFPSSSHSHSNSQNELLTTPSSSSTKRPSTSRRSSYNTKAAADLPPSMIQMEPKSPILKTNNSSTHVSKHKSSYSSTYYENALTDDDNDDKDNDISHTKRFSRSSNSRPSSIRSGSVSRRKSDVTHEEPNNGSYSSNNQENYLVQALTRSNSHASSLHSRKSSFGSDGNTAYSTPLNSPGLSKLTDHSGEYFTSNSTSSLNHHSSRDIYPSKHISNDDDIENSSQLSNIHASMENVNDKNNNITDSKKDPNEEFNDIMQSSGNKNAPKKFKKPIDIDETIQKLLDAGYAAKRTKNVCLKNNEILQICIKAREIFLSQPSLLELSPPVKIVGDVHGQYGDLLRLFTKCGFPPSSNYLFLGDYVDRGKQSLETILLLFCYKIKYPENFFLLRGNHECANVTRVYGFYDECKRRCNIKIWKTFIDTFNTLPLAAIVAGKIFCVHGGLSPVLNSMDEIRHVVRPTDVPDFGLINDLLWSDPTDSPNEWEDNERGVSYCYNKVAINKFLNKFGFDLVCRAHMVVEDGYEFFNDRSLVTVFSAPNYCGEFDNWGAVMSVSEGLLCSFELLDPLDSAALKQVMKKGRQERKLANQQQQMMETSITNDNESQQ"}},
  "system": "PPIs identified as affected by the SH3 domain deletions",
  "experiment": "Liquid DHFR-PCA low-throughput validation of PPIs affected by SH3 deletion (Fig. S1D-E)",
  "type": "cell-based, Saccharomyces cerevisiae",
  "conditions": "label = prey, liquid DHFR-PCA, prey _1 = lost, _2 = gained in screen",
  "procedure,_shortened": "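Yeast diploids from DHFR-PCA mating grown 48 h in synthetic complete MSG medium pH 6.0 with NAT and HPH, normalized to 1 OD and diluted to 0.1 OD in liquid PCA selection medium. Growth followed by OD every 15 min for 72 h at 30 °C.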",
  "data": [
    {"molecule": "B1", "values": [
      {"measurement": "Ratio (Deletedscore / WTscore)", "setting": "bait LSB3", "result": 0.9725}
    ]},
    {"molecule": "B2", "values": [
      {"measurement": "Ratio (Deletedscore / WTscore)", "setting": "bait LSB3", "result": 0.5637}
    ]},
    {"molecule": "B3", "values": [
      {"measurement": "Ratio (Deletedscore / WTscore)", "setting": "bait LSB3", "result": 0.5323}
    ]},
    {"molecule": "B4", "values": [
      {"measurement": "Ratio (Deletedscore / WTscore)", "setting": "bait LSB3", "result": 0.4618}
    ]},
    {"molecule": "B5", "values": [
      {"measurement": "Ratio (Deletedscore / WTscore)", "setting": "bait LSB3", "result": 0.8948}
    ]},
    {"molecule": "B6", "values": [
      {"measurement": "Ratio (Deletedscore / WTscore)", "setting": "bait ABP1", "result": 1.259},
      {"measurement": "Ratio (Deletedscore / WTscore)", "setting": "bait BOI1", "result": 1.203},
      {"measurement": "Ratio (Deletedscore / WTscore)", "setting": "bait BZZ1-2", "result": 1.516}
    ]}
  ]
}
